± gives the uncertainty stated by the source.

The series is described as follows: amyloid nucleation score (Sup35N fusion, yeast selection) (log enrichment); library NNK3; higher = more nucleation; inactive = no reads after selection. The essentials:
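Libraries of peptides of 20 random codons fused to Sup35N were expressed in psi-negative yeast and induced 24 hours with 100 μM copper sulfate. Selection was 7 days at 30°C on medium lacking adenine and uracil, and plasmid inserts were Illumina-sequenced before and after selection. Nucleation score is the DiMSum log enrichment of output over input reads, centred on the mode score of non-aggregating sequences, and sequences with under 100 input reads were left out.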
In the case of SVYPYESYLVW, the amyloid nucleation score result is “inactive”. As for SVYVNAYEHNKGGFTRNIHI, the entry is “inactive”; as for SWAYL, “inactive”; as for SWDYSKRNCSVEKVWTELNF, “inactive”. As for SWEFPTDKSYMSCREPENPM, the entry is “inactive”; as for SWFALSLIIKTRVWT, “inactive”; as for SWGMLSY, “inactive”.

For SWIVLYRMDS, the amyloid nucleation score entry was “inactive”. As for SWIVNKVF, the entry is “inactive”; as for SWLFVDLYSFHFCFSNYVSY, “inactive”. As for SWLKVCRQGYGDSSIRYRLL, the entry is “inactive”; as for SWNRYTLRLSPSGFLVKVSL, “inactive”.

SWSARVKVLLVVGCNVSVFC had an amyloid nucleation score of 0.842 ± 0.2.

Regarding SWTSEGDWHYFGYIEVVWHY, the amyloid nucleation score result was “inactive”. SWWFCVWFQNI registered an amyloid nucleation score of 0.888 ± 0.13. Consider SWYRVNYTLPC, for which the amyloid nucleation score entry is “inactive”. On to SWYSMGNP, for which the amyloid nucleation score worked out at 1.04 ± 0.14. The entry for SWYVAFFNNSGFSCMGVFVG is “inactive”; for SYCGSSASSASTLEIRYTLA it is 0.875 ± 0.12. As for SYCLYKLQLLWHDNHGFGYN, the entry is “inactive”; as for SYCTYCRKAVGCHVHDEVGG, “inactive”; as for SYDVKSSTLW, “inactive”.

Take SYEGMTREPLYMVYMRGSTD: the amyloid nucleation score worked out at 1.16 ± 0.16.

As for SYFVALMSLRYMESTYWR, the amyloid nucleation score entry is “inactive”. Regarding SYFVLVWRETDFKHCLKGNF, the amyloid nucleation score entry is “inactive”. The figure for SYGSLM is 0.198 ± 0.27; for SYISQEFYDFCFKPYLGSLY it is “inactive”. The entry for SYLIGIWGFWINGIVFAVCA is “inactive”; for SYLNVLPNFLRLTAICVVFR it is “inactive”. Consider SYLYVTKYVLFDR, for which the amyloid nucleation score entry is “inactive”. As for SYMITLLKVIILSWHTYAVM, the entry is “inactive”; as for SYMLWYSS, “inactive”; as for SYMQMTELKEAP, “inactive”. Regarding SYNRAA, the amyloid nucleation score result is “inactive”.

Turning to SYNSVRW, the amyloid nucleation score entry is “inactive”. With SYRKEYYKLGHYSRRMQATS, the amyloid nucleation score entry is “inactive”.

As to SYTFVCRPTFYVCFCGSMCF, the amyloid nucleation score was 2.45 ± 0.065. As to SYYISMVYTVMSMNASFSRS, the amyloid nucleation score result was “inactive”. Take SYYLITDS: the amyloid nucleation score result is “inactive”. The entry for TAESEMNQCVLSRYFSSAIR is “inactive”. The entry for TAESTDCG is “inactive”; for TAFTMGV it is “inactive”; for TAGNWWNVCVNTFNRWRRLL it is “inactive”. Consider TAKGVKSDLECGCNVFRTEC, for which the amyloid nucleation score was determined as 0.457 ± 0.15. As for TANCLVCVTCSGLMRTT, the figure is 2.82 ± 0.054.

TATWSFNVT: the amyloid nucleation score entry was “inactive”. As for TAYSLMSIVFGWQPPKCGYE, the figure is 0.648 ± 0.2; as for TCCNQRFGVRWNIYYGSDVW, 0.742 ± 0.15.

On to TCDIRCCTASPLYNRVM, for which the amyloid nucleation score was 0.129 ± 0.47.

With TCEWLSNYFKDLFIMVLSIS, the amyloid nucleation score entry is “inactive”. Regarding TCLLIYFMFHGEVMPLWSI, the amyloid nucleation score entry is “inactive”. As to TCLLMSPVFMVYFLLKTMNS, the amyloid nucleation score result is “inactive”. Take TCLRG: the amyloid nucleation score result was “inactive”. For the substance TCSKVFQYG, the amyloid nucleation score result was “inactive”. Turning to TCTCKVRLYCTMARSPFIMG, the amyloid nucleation score result is “inactive”. As for TCTSQMLVWYFFPFLINMSW, the entry is “inactive”. TCVIKGGCCGLN gave an amyloid nucleation score of -0.955 ± 2.5. On to TDCELGLLRL, for which the amyloid nucleation score result was “inactive”.

In the case of TDETSGRSLGVVWEHHAMNH, the amyloid nucleation score result is “inactive”. As for TDRVCTPSVSDILVRWNNSQ, the entry is “inactive”; as for TDSNYNFNC, 0.214 ± 0.34. On to TDVSHGNLHGVSSWSGVPAD, for which the amyloid nucleation score result was “inactive”. For TDYMLVWSQYRLIHFCNLVV, the amyloid nucleation score entry is “inactive”. For TEGRVQMWRINALRECTGSS, the amyloid nucleation score entry was “inactive”. Consider TFCLFRS, for which the amyloid nucleation score was -0.343 ± 0.63.

As for TFGWINVAYSYSFSICGCTG, the amyloid nucleation score worked out at 2.62 ± 0.051.

In the case of TFKHTFNNVHCSGAFTGSQL, the amyloid nucleation score stood at 0.161 ± 0.25. The figure for TFKMQWECVIA is 0.657 ± 0.16. For the substance TFLNSNFFPIWLVVCASA, the amyloid nucleation score entry was “inactive”.

Consider TFRLKGALRKVVW, for which the amyloid nucleation score result was “inactive”. The entry for TFRWFDGIKTLMMD is “inactive”; for TFSGVCIVIAYCGVFNILEG it is 1.94 ± 0.097. The entry for TFVKSLVGGFTRNLVFLAIL is “inactive”; for TFWLH it is 0.156 ± 0.88; for TFWYLFCDDDS it is “inactive”. As to TFYSSML, the amyloid nucleation score result is “inactive”.

In the case of TGFLSIHLSWTYTCYMIVER, the amyloid nucleation score result was “inactive”. Regarding TGGWTNNEQHFENSGMEVGT, the amyloid nucleation score entry was “inactive”. As to TGHMTDIYYELSHGVEPKGL, the amyloid nucleation score entry is “inactive”. As for TGIGSLCVLRLTYFIRVSIA, the entry is “inactive”; as for TGYAFFHEAS, “inactive”. In the case of THFYWADAVVMPAYRVIRRF, the amyloid nucleation score entry was “inactive”.

For THGVR, the amyloid nucleation score result was “inactive”. THIGFFFNCIL showed an amyloid nucleation score of 2.56 ± 0.082. THNVRDMLPATETFASKSGG: the amyloid nucleation score was 1.1 ± 0.17. As for TICGYI, the entry is “inactive”; as for TICLDLLDWEVEGPYNVVSG, “inactive”. The entry for TICPWNATLGGKGDRSMK is “inactive”; for TIGFFSVVNYVWFSAYNWQS it is -0.453 ± 0.35; for TIPFRAINPVSM it is “inactive”.

As to TISLGE, the amyloid nucleation score entry was “inactive”. TIYCWTQNIHDY had an amyloid nucleation score of 2.3 ± 0.086. For TKRWFGLCYESVKLRVRSFA, the amyloid nucleation score result was “inactive”.

Turning to TKRWHR, the amyloid nucleation score entry was “inactive”. As to TKVNL, the amyloid nucleation score entry is “inactive”. As for TKWFCVFTLSRNINRFTRL, the entry is “inactive”. Regarding TKYTNPHERSIEMSLFRERQ, the amyloid nucleation score result is “inactive”.

On to TLCST, for which the amyloid nucleation score result was “inactive”.

As to TLFERRCSGTIMHRIQRREF, the amyloid nucleation score result was “inactive”. The entry for TLFGFCAREIVRMRNDHIQV is “inactive”; for TLFSSCGLVHLLNCMRWPPG it is “inactive”; for TLGTLSICLCIFRYPGKTEA it is “inactive”. Consider TLHIF, for which the amyloid nucleation score entry is “inactive”. Regarding TLHVCIVLSPGRW, the amyloid nucleation score result was “inactive”. The entry for TLILTDRTWLNDLSSLLIQL is “inactive”; for TLLARFSPRLATTYSNAICG it is “inactive”. As for TLLGNINPLLW, the amyloid nucleation score entry was “inactive”. Regarding TLMISPENIVRR, the amyloid nucleation score result is “inactive”. As for TLNGFLNGYEYQ, the entry is “inactive”; as for TLQHLGYVSNIWGVVTAAGS, “inactive”. Turning to TLRDKNLLEPIKCDWYTIKT, the amyloid nucleation score result is “inactive”. The entry for TLRLLDTVMWHKLGGTRAMS is “inactive”. The entry for TLRVYAMVLTWAPKLSFWRS is “inactive”; for TLSCYECPVVVRILVVRNCV it is “inactive”; for TLSELLR it is “inactive”. The figure for TLSWLRPPPSRPLLFHEVSW is -0.246 ± 0.8; for TLTGVPAGSTT it is “inactive”; for TLTYRSSQND it is “inactive”. With TLVGFRALKYIRWTCLAHRF, the amyloid nucleation score entry was “inactive”.

Regarding TLVIHIN, the amyloid nucleation score result is “inactive”. Take TLYFYNTCLRQCKQYFIDFR: the amyloid nucleation score amounted to 0.305 ± 0.16. Take TMASYWPMERRRTASELPGV: the amyloid nucleation score result is “inactive”. The entry for TMHLTHRYSTVLRESLVGSR is “inactive”; for TMSVMPLTVQVLVGRISDGQ it is 1.71 ± 0.071; for TMTIDESTWVVSANMSYRMK it is 1.37 ± 0.1. Turning to TNESIMCGLAT, the amyloid nucleation score entry was “inactive”. The entry for TNMVMA is “inactive”; for TNQQYGSLGFISTSGIILLF it is “inactive”; for TNRMDKYCCV it is “inactive”.

Take TNSFAYNWLNAW: the amyloid nucleation score entry was “inactive”. The entry for TNTPIMKCELHTRDFVKVIS is “inactive”; for TNYICCSFRFPWNHSYV it is 3.4 ± 0.061. The entry for TNYNHCKCEIGLGHILARFT is “inactive”; for TPHESLRTCFLTKR it is “inactive”.

The values above are taken from the supplement of paper PMC12042874.
